Measurements published in paper PMC10397247.
Read-outs that look alike come from different tables or passages of the source. One block for each binder: values may come before it.

Key:
[1] = molecular target: GCN2_T; test: two-hybrid library CCmax;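 further: natural log of median RNA to DNA barcode read ratio; higher means stronger binding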
[2] = molecular target: T1, P2-AA; test: two-hybrid library CCmax;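 further: natural log of median RNA to DNA barcode read ratio; higher means stronger binding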
T1 chain: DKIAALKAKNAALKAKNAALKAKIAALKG

[3] = molecular target: T2, AP5-AA; test: two-hybrid library CCmax;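 further: natural log of median RNA to DNA barcode read ratio; higher means stronger binding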
T2 chain: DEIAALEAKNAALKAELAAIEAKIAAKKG

[4] = molecular target: T3, P9-AA; test: two-hybrid library CCmax;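 further: natural log of median RNA to DNA barcode read ratio; higher means stronger binding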
T3 chain: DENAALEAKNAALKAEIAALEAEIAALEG

[5] = molecular target: T4, P10-AA; test: two-hybrid library CCmax
T4 chain: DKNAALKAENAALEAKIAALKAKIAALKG

[6] = molecular target: T5, P8-AA; test: two-hybrid library CCmax
T5 chain: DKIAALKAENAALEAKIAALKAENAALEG

[7] = molecular target: T6, AP4-AA; test: two-hybrid library CCmax
T6 chain: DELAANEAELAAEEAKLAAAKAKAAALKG

[8] = molecular target: T7, AP7-AA; test: two-hybrid library CCmax
T7 chain: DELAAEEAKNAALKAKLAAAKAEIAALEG

[9] = molecular target: T8, AP8-AA; test: two-hybrid library CCmax
T8 chain: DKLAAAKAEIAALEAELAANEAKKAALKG

[10] = molecular target: T9, P7-AA; test: two-hybrid library CCmax
T9 chain: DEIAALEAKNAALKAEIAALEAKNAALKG

[11] = molecular target: T10, P12-AA; test: two-hybrid library CCmax
T10 chain: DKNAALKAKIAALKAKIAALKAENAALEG

[12] = molecular target: T11, P4-AA; test: two-hybrid library CCmax
T11 chain: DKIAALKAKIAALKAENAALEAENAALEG

[13] = molecular target: T12, AP3-AA; test: two-hybrid library CCmax
T12 chain: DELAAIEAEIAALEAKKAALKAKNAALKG

[14] = molecular target: T13, P1-AA; test: two-hybrid library CCmax
T13 chain: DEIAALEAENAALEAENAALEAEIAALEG

[15] = molecular target: T14, P11-AA; test: two-hybrid library CCmax
T14 chain: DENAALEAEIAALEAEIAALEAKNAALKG

[16] = molecular target: T15, AP2-AA; test: two-hybrid library CCmax
T15 chain: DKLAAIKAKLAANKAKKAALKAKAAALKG

[17] = molecular target: T16, AP6-AA; test: two-hybrid library CCmax
T16 chain: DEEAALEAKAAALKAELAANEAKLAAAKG

[18] = molecular target: T17, P3-AA; test: two-hybrid library CCmax
T17 chain: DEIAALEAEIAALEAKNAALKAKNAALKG

[19] = molecular target: T18, AP1-AA; test: two-hybrid library CCmax
T18 chain: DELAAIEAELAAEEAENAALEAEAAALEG

[20] = molecular target: T19, O2-bP; test: two-hybrid library CCNG1
T19 chain: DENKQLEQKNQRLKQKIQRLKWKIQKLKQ

[21] = molecular target: T20, O15-bP; test: two-hybrid library CCNG1
T20 chain: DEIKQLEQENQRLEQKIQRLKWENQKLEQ

[22] = molecular target: T21, O5-bP; test: two-hybrid library CCNG1
T21 chain: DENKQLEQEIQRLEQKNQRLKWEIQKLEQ

[23] = molecular target: T22, O8-bP; test: two-hybrid library CCNG1
T22 chain: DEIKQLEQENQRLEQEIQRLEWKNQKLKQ

[24] = molecular target: T23, O3-bP; test: two-hybrid library CCNG1
T23 chain: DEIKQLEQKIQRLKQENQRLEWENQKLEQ

[25] = molecular target: T24, O4-bP; test: two-hybrid library CCNG1
T24 chain: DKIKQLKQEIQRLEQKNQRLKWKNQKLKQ

[26] = molecular target: T25, O6-bP; test: two-hybrid library CCNG1
T25 chain: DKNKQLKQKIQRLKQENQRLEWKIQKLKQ

[27] = molecular target: T26, O7-bP; test: two-hybrid library CCNG1
T26 chain: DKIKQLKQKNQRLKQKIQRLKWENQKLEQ

[28] = molecular target: T27, O16-bP; test: two-hybrid library CCNG1
T27 chain: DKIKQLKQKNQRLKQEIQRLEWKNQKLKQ

[29] = molecular target: T28, O9-bP; test: two-hybrid library CCNG1
T28 chain: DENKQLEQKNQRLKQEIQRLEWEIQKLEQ

[30] = molecular target: T29, 4H_BCR; test: two-hybrid library CCmax
T29 chain: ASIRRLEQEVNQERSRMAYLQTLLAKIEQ

[31] = molecular target: T30, O7; test: two-hybrid library CCNG1
T30 chain: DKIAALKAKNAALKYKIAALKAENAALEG

[32] = molecular target: T31, O16; test: two-hybrid library CCNG1
T31 chain: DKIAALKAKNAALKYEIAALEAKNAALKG

[33] = molecular target: T32, O5; test: two-hybrid library CCNG1
T32 chain: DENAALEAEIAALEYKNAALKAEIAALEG

[34] = molecular target: T33, O9; test: two-hybrid library CCNG1
T33 chain: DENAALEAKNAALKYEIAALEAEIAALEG

[35] = molecular target: T34, O8; test: two-hybrid library CCNG1
T34 chain: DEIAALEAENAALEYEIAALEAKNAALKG

[36] = molecular target: T35, O4; test: two-hybrid library CCNG1
T35 chain: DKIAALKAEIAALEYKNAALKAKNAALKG

[37] = molecular target: T36, O6; test: two-hybrid library CCNG1
T36 chain: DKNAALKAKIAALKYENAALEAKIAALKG

[38] = molecular target: T37, O2; test: two-hybrid library CCNG1
T37 chain: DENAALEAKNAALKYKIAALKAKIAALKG

[39] = molecular target: T38, O15; test: two-hybrid library CCNG1
T38 chain: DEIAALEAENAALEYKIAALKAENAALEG

[40] = molecular target: T39, O3; test: two-hybrid library CCNG1
T39 chain: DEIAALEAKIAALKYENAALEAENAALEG

[41] = molecular target: T40, O13-AA; test: two-hybrid library CCmax; settings: mean of both orientations
T40 chain: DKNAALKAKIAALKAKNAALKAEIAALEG

[42] = molecular target: T41, zCON9_B; test: two-hybrid library CCmax; settings: mean of both orientations
T41 chain: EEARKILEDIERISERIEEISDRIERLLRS

[43] = molecular target: T42, O14-AA; test: two-hybrid library CCmax; settings: mean of both orientations
T42 chain: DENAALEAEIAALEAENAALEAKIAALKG

[44] = molecular target: T43, zCON9_A; test: two-hybrid library CCmax
T43 chain: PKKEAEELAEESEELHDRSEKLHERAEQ

[45] = molecular target: 4H_GCN4; test: two-hybrid library CCmax; settings: mean of both orientations
[46] = molecular target: T44, zCON9_D; test: two-hybrid library CCmax; settings: mean of both orientations
T44 chain: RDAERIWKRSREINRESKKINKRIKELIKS

[47] = molecular target: T45, O11-AA; test: two-hybrid library CCmax; settings: mean of both orientations
T45 chain: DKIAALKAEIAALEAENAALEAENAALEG

4H_GCN4, sequence (chain, as listed by the source): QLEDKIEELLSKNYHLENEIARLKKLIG

interaction score [1]: -2.11
interaction score ([2]; mean of both orientations): 0.117
interaction score ([3]; mean of both orientations): -1.52
interaction score ([4]; mean of both orientations): -1.77
interaction score ([5]; mean of both orientations): -1.61
interaction score ([6]; mean of both orientations): -1.49
interaction score ([7]; mean of both orientations): -1.14
interaction score ([8]; mean of both orientations): -1.41
interaction score ([9]; mean of both orientations): -1.34
interaction score ([10]; mean of both orientations): -1.65
interaction score ([11]; mean of both orientations): -1.66
interaction score ([12]; mean of both orientations): -1.4
interaction score ([13]; mean of both orientations): -1.43
interaction score ([14]; mean of both orientations): -1.54
interaction score ([15]; mean of both orientations): -1.38
interaction score ([16]; mean of both orientations): -1.59
interaction score ([17]; mean of both orientations): -2.13
interaction score [18]: -1.19
interaction score [19]: -1.8
Binder: DELAAIEAELAAEEAENAALEAEAAALEG [AP1-AA]

interaction score [20]: -1.39
interaction score [21]: -0.0595
interaction score [22]: -0.178
interaction score [23]: -0.223
interaction score [24]: -0.872
interaction score [25]: -1.2
interaction score [26]: -0.729
interaction score [27]: -0.235
interaction score [28]: 1.51
interaction score [29]: -1.06
Binder: DEIKQLEQENQRLEQKIQRLKWENQKLEQ [O15-bP]

interaction score [2]: -1.85
interaction score [3]: -0.968
interaction score [4]: -0.77
interaction score [5]: -0.731
interaction score [6]: -1.41
interaction score [7]: -1.76
interaction score [8]: -1.94
interaction score [9]: -0.758
interaction score [30]: -1.42
interaction score [10]: -1.07
interaction score [11]: -1.53
interaction score [12]: -2.3
interaction score [14]: -1.41
interaction score [15]: 0.988
interaction score [16]: -1.83
interaction score [17]: -2.3
interaction score [18]: -1.01
interaction score [19]: -1.7
Binder: KRAKQLRKRLQALEWQLAQIRKELQAAEK [4H_APH3]

interaction score [3]: -1.71
interaction score [4]: -1.85
interaction score [5]: -1.63
interaction score [6]: -1.79
interaction score [7]: -1.35
interaction score [8]: -1.91
interaction score [9]: -1.53
interaction score [30]: -1.77
interaction score [10]: -1.59
interaction score [11]: -1.31
interaction score [12]: -1.76
interaction score [13]: -1.71
interaction score [14]: -1.37
interaction score [15]: -1.87
interaction score [16]: -2.23
interaction score [17]: -1.16
interaction score [19]: -1.22
Binder: KRLKQLRKRKQAKRWEEAQIEKELQAIEK [4H_APH2]

interaction score [31]: -0.707
interaction score [32]: 1.41
interaction score [33]: -1.45
interaction score [34]: -2.28
interaction score [35]: -1.73
interaction score [36]: -1.8
interaction score [37]: -2.48
interaction score [38]: -2.21
interaction score [39]: -1.57
interaction score [40]: -2.17
Binder: DEIAALEAENAALEYKIAALKAENAALEG [O15]

interaction score [1]: -2.01
interaction score [41]: -1.72
interaction score ([2]; mean of both orientations): -2.08
interaction score ([3]; mean of both orientations): -1.5
interaction score [42]: -0.916
interaction score ([4]; mean of both orientations): -1.88
interaction score ([5]; mean of both orientations): -1.67
interaction score [43]: -0.776
interaction score ([6]; mean of both orientations): -1.85
interaction score ([7]; mean of both orientations): -1.51
interaction score [44]: -2.12
interaction score ([8]; mean of both orientations): -1.69
interaction score ([9]; mean of both orientations): -1.28
interaction score [30]: -1.84
interaction score [45]: -1.7
interaction score ([10]; mean of both orientations): -1.28
interaction score ([11]; mean of both orientations): -1.94
interaction score ([12]; mean of both orientations): -1.94
interaction score ([13]; mean of both orientations): -1.8
interaction score ([14]; mean of both orientations): -1.71
interaction score ([15]; mean of both orientations): -1.68
interaction score ([16]; mean of both orientations): -2.54
interaction score ([17]; mean of both orientations): -1.75
interaction score ([18]; mean of both orientations): -2.12
interaction score ([19]; mean of both orientations): -1.92
interaction score [46]: -1.5
interaction score [47]: -1.66
Binder: ASIRRLEQEVNQERSRMAYLQTLLAKIEQ [4H_BCR]

interaction score [31]: -1.81
interaction score [32]: -2.69
interaction score [33]: -1.91
interaction score [34]: -2.26
interaction score [35]: -0.596
interaction score [36]: -1.89
interaction score [37]: -1.46
interaction score [38]: -2.29
interaction score [40]: -1.85
Binder: DKIAALKAKNAALKYEIAALEAKNAALKG [O16]

interaction score [20]: -1.5
interaction score [22]: -0.672
interaction score [23]: 1.44
interaction score [24]: -1.06
interaction score [25]: -1.21
interaction score [26]: 0.641
interaction score [27]: -1.1
interaction score [28]: -0.576
interaction score [29]: -1.13
Binder: DKIKQLKQKNQRLKQEIQRLEWKNQKLKQ [O16-bP]

interaction score [2]: -1.88
interaction score [3]: -1.61
interaction score [4]: -1.79
interaction score [5]: -1.38
interaction score [6]: -2.2
interaction score ([7]; mean of both orientations): -1.78
interaction score [8]: -2.06
interaction score [9]: -1.39
interaction score [30]: -1.95
interaction score [10]: -1.7
interaction score [11]: -2.07
interaction score [12]: -2.31
interaction score [13]: -1.44
interaction score [14]: -2.2
interaction score [15]: -1.36
interaction score [16]: -2.2
interaction score [17]: -2.8
interaction score [18]: -1.05
interaction score ([19]; mean of both orientations): -1.81
Binder: KRLKQIEKRLQAKEWEKAQLRKELQALRK [4H_APH4]
